Experimental data from publication PMC2853111.
Read-outs that look alike come from different tables or passages of the source.

What was measured:
[1] = target: T1, estrogen receptor alpha (rERα, NR3A1) (UniProt P03372 1-595); assay: EMSA
[2] = target: T1, estrogen receptor alpha (rERα, NR3A1); assay: EMSA; remark: listed apart in the source

T1 sequence (P03372 whole entry): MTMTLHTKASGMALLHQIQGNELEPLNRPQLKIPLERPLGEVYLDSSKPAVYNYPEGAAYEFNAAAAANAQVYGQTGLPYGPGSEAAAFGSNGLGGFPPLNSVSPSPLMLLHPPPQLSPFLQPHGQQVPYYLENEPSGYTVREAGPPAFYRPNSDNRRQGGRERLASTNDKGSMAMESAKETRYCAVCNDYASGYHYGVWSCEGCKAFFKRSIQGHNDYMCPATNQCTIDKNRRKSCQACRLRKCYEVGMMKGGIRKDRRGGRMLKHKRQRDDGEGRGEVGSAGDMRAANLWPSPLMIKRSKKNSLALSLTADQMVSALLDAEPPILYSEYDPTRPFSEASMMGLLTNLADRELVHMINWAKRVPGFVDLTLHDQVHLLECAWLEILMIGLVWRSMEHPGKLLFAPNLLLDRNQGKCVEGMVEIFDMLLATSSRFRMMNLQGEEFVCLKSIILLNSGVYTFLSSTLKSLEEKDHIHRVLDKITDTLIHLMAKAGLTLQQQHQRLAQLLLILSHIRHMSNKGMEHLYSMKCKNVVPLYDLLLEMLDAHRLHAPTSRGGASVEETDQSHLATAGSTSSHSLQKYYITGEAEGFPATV

Binder | binding result [1] | binding result [2]
B68 ERE probe (3' ERE, MIRb) (dsDNA) DNA 1: TTTCTGGGTCACACCGACCTGAGCT DNA 2: AGCTCAGGTCGGTGTGACCCAGAAA | binds | 
D66 ERE probe (5' ERE, MIRb) (dsDNA) DNA 1: CACCCAGGTCAGTCTGACATCTAAG DNA 2: CTTAGATGTCAGACTGACCTGGGTG | binds | 
consensus ERE probe (ERE-EMSA) (dsDNA) DNA 1: GGATCTAGGTCACTGTGACCCCGGATC DNA 2: GATCCGGGGTCACAGTGACCTAGATCC |  | binds
